From publication PMC11436948 (Nature Communications, 2024) come the findings set out here.

Where two headings read alike, the source gives them in different places.

Data set [1] concerns the target ^bioχψδγ3δ’ clamp loader complex containing N-terminally biotinylated χ (E. coli) (UniProt P28905). Kind of data set: SPR.
Data set [2] shares this target. Kind of data set: SPR. This is another data set of the same source. (In general: In SPR one partner is held on a chip, and binding of the other changes the refractive index at the surface.)
The data set “cryo-EM structure” concerns the molecule itself. As to the kind of experiment: cryo-EM structure.

As to “E. coli β2 sliding clamp (from UniProt P0A988) (natural protein)”, the Kd in data set [1] came to 13.3 nM; in data set [2], 400 nM.

B1: γ subunit of the E. coli clamp loader complex (natural protein)
chain: MSYQVLARKWRPQTFADVVGQEHVLTALANGLSLGRIHHAYLFSGTRGVGKTSIARLLAKGLNCETGITATPCGVCDNCREIEQGRFVDLIEIDAASRTKVEDTRDLLDNVQYAPARGRFKVYLIDEVHMLSRHSFNALLKTLEEPPEHVKFLLATTDPQKLPVTILSRCLQFHLKALDVEQIRHQLEHILNEEHIAHEPRALQLLARAAEGSLRDALSLTDQAIASGDGQVSTQAVSAMLGTLDDDQALSLVEAMVEANGERVMALINEAAARGIEWEALLVEMLGLLHRIAMVQLSPAALGNDMAAIELRMRELARTIPPTDIQLYYQTLLIGRKELPYAPDRRMGVEMTLLRALAFHPRMPLPEPEVPRQSFAPVAPTAVMTPTQVPPQPQSAPQQAPTVPLPETTSQVLAARQQLQRVQGATKAKKE
Turning to B1, the binding result in the data set “cryo-EM structure” is “binds”.

By Kd is commonly meant a measure of binding affinity in units of concentration. A higher Kd goes with a looser complex.
